From patent publication US20070179113A1, “GM-CSF gene therapy for Crohn's disease using an improved regulated expression system” (Schering Aktiengesellachaft, priority 2005, published 2007)

Legend:
[1] = Pharmacokinetic study of mGM-CSF protein formulations, serum mGM-CSF ELISA; format: in vivo, BalbC mice; conditions: i.m. injection
Experimental: FIG. 40 illustrates the use of ELISA for detection of murine GM-CSF. BalbC mice (n=5/group) were injected i.m. with 5 or 10 μg non-pegylated, or 5 μg pegylated mGM-CSF. Mice received either a single injection or 4 daily injections. Serum was obtained 1, 3, 6, and 12 hours following the single injection or the fourth injection. mGM-CSF levels in serum were measured using the ELISA from R&D (Minneapolis).
i. GM-CSF ELISA validation. A commercially available ELISA (R&D, Minneapolis) was validated for the detection of murine (m)GM-CSF in serum. In a pharmacokinetic study two formulations of mGM-CSF protein, non-pegylated or pegylated, were injectedi.m. and serum samples were assayed for mGM-CSF. […] The levels of non-pegylated mGM-CSF dropped rapidly within 3 hours following administration, whereas pegylated mGM-CSF was detectable over a 12 hour period.

DSS-induced colitis = DSS-induced colitis model (7% DSS), proof of concept with pCMV-GMCSF plasmid DNA; format: in vivo, mice; conditions: plasmid single injection day 0 + EP, drugs and protein daily
Experimental: Two concentrations of pCMV-mGMCSF were tested side by side with a control plasmid (pNull) and two mGM-CSF protein formulations, non-pegylated and pegylated in the DSS-induced colitis model (N=10/group). A single plasmid DNA injection was administered at day 0 followed by electroporation. Murine GM-CSF protein was injected s.c. daily. Disease was induced with 7% DSS in the drinking water and clinical scores (DIA) were recorded daily.
(§1) Likewise, the DSS-induced mouse colitis model is useful for evaluating therapies for UC, IBD and CD. Disease is induced in mice by daily administration of 5% or 7% dextran sodium sulfate (DSS) in the drinking water over 8 days. Disease progression is monitored by the Daily Activity Index (DAI), a cumulative index of: weight loss, stool consistency, and rectal bleeding, which mimics the symptoms of UC, IBD and/or CD.
vii. […] In this study the efficacy of pGMCSF plasmid DNA was evaluated side by side with Mesopram, Metronidazole, non-pegylated or pegylated mGM-CSF. The disease was induced using 7% DSS, administered daily in the drinking water. Mesopram, Metronidazole and mGM-CSF protein were administered daily, using the same dosing regimen as described for the validation study. pGMCSF plasmid DNA was injected at day 0 followed by electroporation. […]

[2] = tested on: DSS-induced colitis in Balb/C mice; assay: DSS-induced colitis model (5% DSS), validation, Disease Activity Index; format: in vivo; conditions: daily treatment, Mesopram/Metronidazole 50 mg/kg IP, mGM-CSF 5 μg non-pegylated, 5 or 10 μg pegylated
Experimental: Disease was induced in BalbC mice (N=10/group) by DSS (5%) applied daily in the drinking water. Mesopram, Metronidazole, or yeast expressed non-pegylated respectively pegylated mGM-CSF, was administered daily over a period of 8 days. Clinical scores (Daily Activity Index (DAI), a cumulative index of: weight loss, stool consistency, and rectal bleeding) were recorded daily.
as §1
vi. DSS-induced colitis model. Prior to the gene delivery study the model was established and validated in Balb/C mice using non-pegylated and pegylated mGM-CSF protein. Disease was induced in Balb/C mice with 5% dextran sodium sulfate (DSS), provided in the drinking water every day over a period of 8 days. As the main endpoint, the Disease Activity Index (DAI, a cumulative index of: weight loss, stool consistency, and rectal bleeding) was recorded daily. […]

[3] = mGM-CSF concentration in sera at day 8 of the DSS colitis study; conditions: final day of DSS study
Experimental: At day 8, the final day of the study, mGM-CSF concentrations were measured in sera of all mice.

B1: non-pegylated mGM-CSF: yeast expressed non-pegylated murine GM-CSF protein (protein, UniProt P01587 18-141, looked up)
Granulocyte-macrophage …: APTRSPITVTRPWKHVEAIKEALNLLDDMPVTLNEEVEVVSNEFSFKKLTCVQTRLKIFEQGLRGNFTKLKGALNMTASYYQTYCPPTPETDCETQVTTYADFIDSLKTFLTDIPFECKKPGQK
time within which serum levels dropped rapidly following administration [1]: ≤ 3 h | disease scores (DAI) (DSS-induced colitis): efficacious | DAI score [2]: significantly reduced | GM-CSF in sera at day 8 [3]: could be measured

B2: pegylated mGM-CSF: pegylated murine GM-CSF protein (conjugate, UniProt P01587 18-141, looked up)
Granulocyte-macrophage …: APTRSPITVTRPWKHVEAIKEALNLLDDMPVTLNEEVEVVSNEFSFKKLTCVQTRLKIFEQGLRGNFTKLKGALNMTASYYQTYCPPTPETDCETQVTTYADFIDSLKTFLTDIPFECKKPGQK
modifications: PEG
notes: pegylated murine GM-CSF protein
period over which detectable in serum [1]: 12 h | disease scores (DAI) (DSS-induced colitis): efficacious | DAI score [2]: significantly reduced
